In test [1] the target is T1, human ecto-nucleoside triphosphate diphosphohydrolase-3 (NTPDase3) (human, UniProt O75355 1-529).
T1 chain: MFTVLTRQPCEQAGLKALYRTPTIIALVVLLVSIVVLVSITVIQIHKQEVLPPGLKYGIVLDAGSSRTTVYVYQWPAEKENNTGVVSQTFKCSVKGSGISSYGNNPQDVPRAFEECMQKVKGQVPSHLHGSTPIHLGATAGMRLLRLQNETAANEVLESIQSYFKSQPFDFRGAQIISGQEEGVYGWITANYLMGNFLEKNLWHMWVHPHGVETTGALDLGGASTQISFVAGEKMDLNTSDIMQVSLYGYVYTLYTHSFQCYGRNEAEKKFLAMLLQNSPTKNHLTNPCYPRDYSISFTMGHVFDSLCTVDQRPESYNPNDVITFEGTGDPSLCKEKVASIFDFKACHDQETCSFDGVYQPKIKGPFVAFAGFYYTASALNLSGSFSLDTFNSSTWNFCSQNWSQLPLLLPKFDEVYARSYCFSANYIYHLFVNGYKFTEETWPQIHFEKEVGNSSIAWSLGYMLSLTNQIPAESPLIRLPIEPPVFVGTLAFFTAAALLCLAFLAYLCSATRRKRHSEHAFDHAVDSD
The test is described as follows: flow cytometry; COS7-hENTPD3 cells.

The target in test [2] is T1, human ecto-nucleoside triphosphate …. Nature of the test: flow cytometry; CHO-hENTPD3 cells. On the technique in general: In flow cytometry, cells or beads pass a laser one at a time.
Test [3] shares this target. The test is described as follows: flow cytometry; CHO-hENTPD3 cells.
For test [4] the target is unchanged. The test is described as follows: flow cytometry; COS7-hENTPD3 cells.
The target is the same in test [5]. The test is described as follows: flow cytometry; HEK293T-hENTPD3 cells.

B1: PBI #30af8 hIgG1 (antibody, V domains shown)
VH: QVQLQESGGGLIQPGGSLRLSCAASGFQSDSSDYAMSWVRQAPGKGLEWVSSISGTGGSTYYADSVKGRFTISRDNSKNTLYVQMTSLTAEDTAVYYCAKVVGFSTYDYYYHYALDVWGQGTTVTVSS
VL: QPVLTQPPSASGTPGQRVTISCSGSSSNIGSNTVNWYQQLPGTAPKLLIYSDDQRPSGVPDRFSGSKSGTSASLTISGLKTEDEAGYYCQSYDTSNVVFGGGTKVTVL
Consider B1, for which the Kd (as a rule, a measure of binding affinity in units of concentration) in test [1] is 1.26 nM; in test [2], 1.8 nM.

B2: PBI #30af6 hIgG1 (antibody, V domains shown)
VH: QVQLQESGGGLIQPGGSLRLSCAASGFTSSSSDYAMSWVRQAPGKGLEWVSSISGSGGSTYYADSVKGRFTISRDNSKNTLYVQMTSLTAEDTAVYYCAKVFGYSMYDYYYHYALDVWGQGTTVTVSS
VL: QPVLTQPPSASGTPGQRITISCSGSSSNIGSNTVNWYQQLPGTAPKLLIYSNNQRPSGVPDRFSGSKSGTSASLTISGLKTEDEAGYYCQSDDTSNVVFGGGTKVTVL
For the molecule B2, the Kd in test [1] is 1.63 nM; in test [2], 1.85 nM.

B3: PBI #30af8 hIgG4 (antibody, V domains shown)
VH: QVQLQESGGGLIQPGGSLRLSCAASGFQSDSSDYAMSWVRQAPGKGLEWVSSISGTGGSTYYADSVKGRFTISRDNSKNTLYVQMTSLTAEDTAVYYCAKVVGFSTYDYYYHYALDVWGQGTTVTVSS
VL: QPVLTQPPSASGTPGQRVTISCSGSSSNIGSNTVNWYQQLPGTAPKLLIYSDDQRPSGVPDRFSGSKSGTSASLTISGLKTEDEAGYYCQSYDTSNVVFGGGTKVTVL
In the case of B3, the Kd in test [1] stood at 1.43 nM; in test [2], 1.9 nM.

B4: PBI #30af4 hIgG4 (antibody, V domains shown)
VH: QVQLQESGGGLIQPGGSLRLSCAASGFTSSSSDYAMSWVRQAPGKGLEWVSSISGSGVSTYYADSVKGRFTISRDNSKNTLYVQMTSLTAEDTAVYYCAKVVGYSVYDYYYHYALDVWGQGTTVTVSS
VL: QPVLTQPPSASGTPGQRVTISCSGSSSNIGSNTVNWYQQLPGTAPKLLIYSDNQRPSGVPDRFSGSKSGTSASLTISGLKTEDEAGYYCQSDDTSNVVFGGGTKVTVL
Consider B4, for which the Kd was found to be 1.28 nM in test [1] and 1.82 nM in test [2].

B5: PBI #30af6 hIgG4 (antibody, V domains shown)
VH: QVQLQESGGGLIQPGGSLRLSCAASGFTSSSSDYAMSWVRQAPGKGLEWVSSISGSGGSTYYADSVKGRFTISRDNSKNTLYVQMTSLTAEDTAVYYCAKVFGYSMYDYYYHYALDVWGQGTTVTVSS
VL: QPVLTQPPSASGTPGQRITISCSGSSSNIGSNTVNWYQQLPGTAPKLLIYSNNQRPSGVPDRFSGSKSGTSASLTISGLKTEDEAGYYCQSDDTSNVVFGGGTKVTVL
Turning to B5, the figures for the Kd in test [1] and in test [2] were 1.58 nM and 2.18 nM, respectively.

B6: 3E9 Hu/Ra (antibody, V domains shown)
VH: QSLEESGGDLVKPGASLTLTCTASGFSFSSSDWICWVRQAPGKGLEWIACIYAGSIGGAYFASWVNGRFTISRASSTTVTLQMTSLTAADTATYFCARSSSNGRLKLDQFDLWGPGTLVTVSS
VL: AYDMTQTPASVEVAVGGTVTINCQASQSIGGWLSWYRQKPGQPPSLLIYKASTLASGVSSRFSGTGSRTHFTLTINGVQCADAATYYCQQGSAADVANTFGGGTEVVVKG
With B6, the Kd was 1.94 nM in test [3], 0.63 nM in test [4] and 1.79 nM in test [5].

B7: 42D8 Hu/Ra (antibody, V domains shown)
VH: QSVEESGGRLVTPGTPLTLTCTVSGFSLSSYAMGWVRQAPGKGLEFIGIITYNSNTYYANWAKGRFPISKTSSTTVDLKMTSPTTEDTATYFCARARYGGYSTNSYYLNIWGPGTLVTVSS
VL: DVVMTQTPASVSAAVGGTVTINCQASENIYRILAWYQQKPGQPPKLLIYGASNLETGVPSRFKGSGSGTEYTLTISDLECDDAATYYCQGVLYNSNDSTFGGGTEVVVKG
Turning to B7, the Kd in test [3] was found to be 1.96 nM; in test [4], 0.64 nM; in test [5] it was 0.55 nM.

For the origin of these results see patent US20240052061A1 (published 2024).
